Assay results as given in patent US11491212.

B1: FIXa-K247N/N249S/R318Y/R338E/R403E (protein)
chain 1: not shown
chain 2: not shown
B2: FIXa-Y155F/R318Y/R338E/N346D/R403E/E410N (protein)
chain 1: not shown
chain 2: not shown
B3: FIXa-D104N/K106S/N260S/R318Y/R338E/R403E/E410N (protein)
chain 1: not shown
chain 2: not shown
B4: FIXa-Y155F/N260S/R318Y/R338E/R403E/E410N (protein)
chain 1: not shown
chain 2: not shown
B5: FIXa-Y155F/R338E/R403E/E410N (protein)
chain 1: not shown
chain 2: not shown
B6: FIXa-D104N/K106S/Y155F/K247N/N249S/N260S (protein)
chain 1: not shown
chain 2: not shown
B7: FIXa-R318Y/R338E/Y345A/N346D/R403E/E410N (protein)
chain 1: not shown
chain 2: not shown
B8: FIXa-D104N/K106S/K247N/N249S/N260S (protein)
chain 1: not shown
chain 2: not shown
B9: FIXa-Y155F/K228N/K247N/N249S (protein)
chain 1: not shown
chain 2: not shown
B10: FIXa-Y155F/K247N/N249S/R318Y/R338E/R403E (protein)
chain 1: not shown
chain 2: not shown
B11: FIXa-A103N/N105S/K247N/N249S/R318Y/R338E/R403E/E410N (protein)
chain 1: not shown
chain 2: not shown
B12: FIXa-Y155F/K247N/N249S/N260S (protein)
chain 1: not shown
chain 2: not shown

These proteins were tested against Factor X (FX), P00742.
Sequence of Factor X (FX), P00742 (P00742 whole entry, looked up): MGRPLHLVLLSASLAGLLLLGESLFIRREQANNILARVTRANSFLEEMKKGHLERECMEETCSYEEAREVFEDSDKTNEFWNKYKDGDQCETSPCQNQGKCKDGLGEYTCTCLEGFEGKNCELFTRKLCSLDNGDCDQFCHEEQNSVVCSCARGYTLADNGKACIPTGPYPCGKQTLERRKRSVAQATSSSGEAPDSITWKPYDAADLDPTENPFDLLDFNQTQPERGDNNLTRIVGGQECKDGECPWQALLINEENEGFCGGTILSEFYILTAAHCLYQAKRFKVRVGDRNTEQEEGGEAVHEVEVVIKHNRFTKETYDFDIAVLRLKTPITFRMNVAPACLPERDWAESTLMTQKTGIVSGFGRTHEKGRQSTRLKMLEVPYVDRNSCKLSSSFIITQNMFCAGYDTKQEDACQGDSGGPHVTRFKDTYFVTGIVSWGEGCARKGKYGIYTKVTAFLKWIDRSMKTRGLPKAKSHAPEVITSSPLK
Protein B1 has a KM of 0.0536 µM and a kcat of 10.5 s⁻¹.
In the case of B2, the “% of WT kcat/KM (against Catalyst Biosciences WT FIXa), FX activation in the Xase complex” value (“% of WT kcat/KM … in the Xase complex” for short) is reported as 139%, the KM is reported as 0.1 µM and the KM (nM) for activation of FX by FIXa in the Xase complex (FVIIIa, PC/PS vesicles, Ca2+), fluorogenic Spectrafluor FXa assay is reported as 100 nM. The kcat/KM for FX activation by FIXa in the Xase complex (FVIIIa, PC/PS vesicles, Ca2+), indirect fluorogenic Spectrafluor FXa assay was 6.2e+07 M⁻¹ s⁻¹.
With B3 the “% of WT kcat/KM … in the Xase complex” value was 196%, the KM was 0.0611 µM and the KM (nM) for activation of FX by FIXa in the Xase complex (FVIIIa, PC/PS vesicles, Ca2+), fluorogenic Spectrafluor FXa assay was 61.1 nM. The kcat/KM for FX activation by FIXa in the Xase complex (FVIIIa, PC/PS vesicles, Ca2+), indirect fluorogenic Spectrafluor FXa assay was 8.8e+07 M⁻¹ s⁻¹.
B4 was tested, and the “% of WT kcat/KM … in the Xase complex” value was 156%, the KM was 0.0839 µM and the KM (nM) for activation of FX by FIXa in the Xase complex (FVIIIa, PC/PS vesicles, Ca2+), fluorogenic Spectrafluor FXa assay was 83.9 nM. The kcat/KM for FX activation by FIXa in the Xase complex (FVIIIa, PC/PS vesicles, Ca2+), indirect fluorogenic Spectrafluor FXa assay was 7e+07 M⁻¹ s⁻¹.
Work on B5 yielded a KM of 0.0336 µM.
With B6 the “% of WT kcat/KM … in the Xase complex” value was 18%, the KM was 0.0685 µM and the KM (nM) for activation of FX by FIXa in the Xase complex (FVIIIa, PC/PS vesicles, Ca2+), fluorogenic Spectrafluor FXa assay was 68.5 nM. The kcat/KM for FX activation by FIXa in the Xase complex (FVIIIa, PC/PS vesicles, Ca2+), indirect fluorogenic Spectrafluor FXa assay was 8.2e+06 M⁻¹ s⁻¹.
With B7 the KM was 0.0565 µM and the kcat was 1.2 s⁻¹.
In the case of B8, the “% of WT kcat/KM … in the Xase complex” value is reported as 22%, the KM is reported as 0.0612 µM and the KM (nM) for activation of FX by FIXa in the Xase complex (FVIIIa, PC/PS vesicles, Ca2+), fluorogenic Spectrafluor FXa assay is reported as 61.2 nM. It also gave a kcat/KM for FX activation by FIXa in the Xase complex (FVIIIa, PC/PS vesicles, Ca2+), indirect fluorogenic Spectrafluor FXa assay of 9.8e+06 M⁻¹ s⁻¹.
In the case of B9, the “% of WT kcat/KM (against Catalyst Biosciences WT FIXa)” value is reported as 115%, the KM is reported as 0.0792 µM and the kcat/KM for activation of FX by FIXa in the Xase complex (FVIIIa, PC/PS vesicles, Ca2+), fluorogenic Spectrafluor FXa read-out is reported as 5.3e+07 M⁻¹ s⁻¹.
B10 gave a KM of 0.0673 µM and a kcat of 5.7 s⁻¹.
With B11 the “% of WT kcat/KM (against Catalyst Biosciences WT FIXa)” value was 324%, the KM was 0.028 µM and the kcat/KM for activation of FX by FIXa in the Xase complex (FVIIIa, PC/PS vesicles, Ca2+), fluorogenic Spectrafluor FXa read-out was 1.5e+08 M⁻¹ s⁻¹.
With B12 the “% of WT kcat/KM … in the Xase complex” value was 43%, the KM was 0.0965 µM and the KM (nM) for activation of FX by FIXa in the Xase complex (FVIIIa, PC/PS vesicles, Ca2+), fluorogenic Spectrafluor FXa assay was 96.5 nM. It also gave a kcat/KM for FX activation by FIXa in the Xase complex (FVIIIa, PC/PS vesicles, Ca2+), indirect fluorogenic Spectrafluor FXa assay of 1.9e+07 M⁻¹ s⁻¹.
